Experimental data published in patent US20240148828A1.

Biological target: NKG2D on human γδ T cells (human) (UniProt P26718)
Assay: cell-based or functional assay

Chain of NKG2D on human γδ T cells (human) (P26718 whole entry, stated change not applied): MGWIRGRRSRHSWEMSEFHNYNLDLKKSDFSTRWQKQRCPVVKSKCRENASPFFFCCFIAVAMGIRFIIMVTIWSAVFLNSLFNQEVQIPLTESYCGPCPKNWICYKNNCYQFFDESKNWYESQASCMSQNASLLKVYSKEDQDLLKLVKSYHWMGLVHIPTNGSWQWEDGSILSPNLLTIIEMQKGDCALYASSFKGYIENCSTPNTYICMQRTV

| frequency of Vγ9+ T cells expressing CD107a (plate-bound, together with BTN2A1/3A1-Fc-CD19scFv) [% γδ T cells] | Substance |
| --- | --- |
| 18 | MICA-Fc fusion protein (from UniProt Q29983 24-307) |
| 18 | MICB-Fc fusion protein (from UniProt Q29980 23-298) |
| 30 | anti-NKG2D antibody (Clone #149810, R&D Systems) |
